Where two headings read alike, the source gives them in different places.
Key:
Details in all cases: modification not given
[1] = target: T1, TFPI (human TFPI-1α) as coated or added in the ELISA, microarray and enzymatic assays (human), P10646; assay: competition
[2] = target: T1, TFPI (human TFPI-1α) as coated or added …
[3] = target: T1, TFPI (human TFPI-1α) as coated or added …; remark: listed apart in the source
[4] = target: T1, TFPI (human TFPI-1α) as coated or added …; remark: listed apart in the source

Row | Binder | IC50 [1] [µM] | other results
1 | FQSKGNVFVAGYFARLRAKL [JBT0806] |  | EC50 [2]: 130 nM; EC50 [3]: 2420 nM
2 | FQSKKNVFDFGYFERLRAKL [JBT0592] | > 5 | 
3 | FQSKKNVDVFGYFERLRAKL [JBT0591] | > 5 | 
4 | FQSKKNVFVFGYFERLRAFL [JBT0583] | > 5 | 
5 | FQSKKNDFVFGYFERLRAKL [JBT0590] | > 5 | 
6 | FQSKGNVFVTGYFARLRAKL [JBT0720] |  | EC50 [4]: 220 nM
7 | FQSKKNVFVFGYFERLRFKL [JBT0582] | > 5 | 
8 | FQSKKFVFVFGYFERLRAKL [JBT0574] | > 5 | 
9 | FQFKKNVFVFGYFERLRAKL [JBT0571] | > 5 | 

More lines, main results first:

Row | IC50 [1] [µM] | Binder | other results
10 | > 5 | FQSDKNVFVFGYFERLRAKL [JBT0588] | 
11 | > 5 | FQSKKNVFVFGFFERLRAKL [JBT0577] | 
12 | > 5 | FQSFKNVFVFGYFERLRAKL [JBT0572] | 
13 | > 5 | FQSKKNVFVFGYFEFLRAKL [JBT0579] | 
14 | 0.04 | FQSKNNVFVHGYFERLRAKL [JBT0487] | 
15 | > 5 | FQSKKNVFVFGYFERFRAKL [JBT0580] | 
16 | > 1.67 | FQSKKNVFVFFYFERLRAKL [JBT0576] | 
17 | > 5 | FQSKKNVFVFGYFERLFAKL [JBT0581] | 
18 | > 5 | FQSKKNVFVFGDFERLRAKL [JBT0594] | 
19 | > 5 | FFSKKNVFVFGYFERLRAKL [JBT0570] | 
20 | > 1.67 | FDSKKNVFVFGYFERLRAKL [JBT0586] | 
21 | 1.37 | FQSKFNVFVFGYFERLRAKL [JBT0573] | 
22 | 0.1 | AQSKGNVFVFGYFERLRAKL [JBT0497] | 
23 | 1.19 | FESKGNVFVFGYFERLRAKL [JBT0516] | 

Reference: patent US20120028901A1
